Measured values reported in publication PMC9966940, “Evidence and Metabolic Implications for a New Non-Canonical Role of Cu-Zn Superoxide Dismutase” (International Journal of Molecular Sciences, 2023).

Biological target: SOD1-His ( (human or mouse cDNA cloned), UniProt P00441 1-154)
Assay: cell-based or functional assay

Chain of SOD1-His (P00441 whole entry): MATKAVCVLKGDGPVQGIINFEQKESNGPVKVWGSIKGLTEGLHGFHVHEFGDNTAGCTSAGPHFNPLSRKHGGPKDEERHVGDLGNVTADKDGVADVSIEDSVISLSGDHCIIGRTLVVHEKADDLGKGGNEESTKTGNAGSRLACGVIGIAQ

B1: YWHAZ-His (natural protein, UniProt P63104 1-245, looked up)
chain: MDKNELVQKAKLAEQAERYDDMAACMKSVTEQGAELSNEERNLLSVAYKNVVGARRSSWRVVSSIEQKTEGAEKKQQMAREYREKIETELRDICNDVLSLLEKFLIPNASQAESKVFYLKMKGDYYRYLAEVAAGDDKKGIVDQSQQAYQEAFEISKKEMQPTHPIRLGLALNFSVFYYEILNSPEKACSLAKTAFDEAIAELDTLSEESYKDSTLIMQLLRDNLTLWTSDTQGDEAEAGEGGEN
- SOD1 activity of purified SOD1 after 15 h incubation with purified YWHAZ at ratios 1:1 and 1:3 (1 SOD1 to 3 YWHAZ protein amount); value at 1:3: ~2 fold
